In patent US20240181135A1, “BIOCHEMICAL ACTIVATION OF DYSFUNCTIONAL SKELETAL STEM CELLS FOR SKELETAL REGENERATION” (The Board of Trustees of the Leland Stanford Junior …, priority 2021, published 2024):

Test system: femoral fractures of ‘2-mo’ mice
Experiment: Hydrogels containing recombinant Csf1 applied to femoral fractures of young mice (μCT and flow cytometry)
Format: in vivo, mouse
Conditions: 5 μg recombinant Csf1 in hydrogel, versus PBS
Text: We also tested whether these increases in Csf1 affected bone maintenance and regeneration. […] Unexpectedly, however, femora harvested from transgenic mice at post-fracture day-21 had decreased mechanical strength compared to wild-type controls despite having increased BMD and similar callus volume (FIG. 3p-q & FIG. 11g). […] In total, SSC lineage derived Csf1 might drive increased bone resorption by stimulating higher osteoclast activity, and this activity needs to be maintained and finely balanced for proper bone health.
Bi-cortical femoral fracture: Animals were anaesthetized using aerosolized isoflurane and analgesia was administered before incision. The femur was exposed following muscle distraction and lateral dislocation of the patella. […]
Micro-computed tomography: Femora were harvested and cleaned of soft tissue. […] Reconstructed samples were analyzed using CT Analyser and CTvox software (Bruker). Trabecular bone parameters of uninjured femur bones were assessed by analyzing a region of 200 sections which was defined 50 sections distal of the end of the growth plate. Fracture calluses were analyzed by selecting 150 sections in both directions of the fracture gap yielding a total area of 300 sections. […]

B1: recombinant Csf1: recombinant Csf1 (5 μg) in hydrogel with defined release kinetics, applied to fractures (protein, UniProt P07141 33-552, looked up)
Macrophage colony-stimulating …: KEVSEHCSHMIGNGHLKVLQQLIDSQMETSCQIAFEFVDQEQLDDPVCYLKKAFFLVQDIIDETMRFKDNTPNANATERLQELSNNLNSCFTKDYEEQNKACVRTFHETPLQLLEKIKNFFNETKNLLEKDWNIFTKNCNNSFAKCSSRDVVTKPDCNCLYPKATPSSDPASASPHQPPAPSMAPLAGLAWDDSQRTEGSSLLPSELPLRIEDPGSAKQRPPRSTCQTLESTEQPNHGDRLTEDSQPHPSAGGPVPGVEDILESSLGTNWVLEEASGEASEGFLTQEAKFSPSTPVGGSIQAETDRPRALSASPFPKSTEDQKPVDITDRPLTEVNPMRPIGQTQNNTPEKTDGTSTLREDHQEPGSPHIATPNPQRVSNSATPVAQLLLPKSHSWGIVLPLGELEGKRSTRDRRSPAELEGGSASEGAARPVARFNSIPLTDTGHVEQHEGSSDPQIPESVFHLLVPGIILVLLTVGGLLFYKWKWRSHRDPQTLDSSVGRPEDSSLTQDEDRQVELPV
modifications: in hydrogel
notes: recombinant Csf1 (5 μg) in hydrogel with defined release kinetics, applied to fractures
- Fracture healing (μCT of day-10 calluses): impaired healing
- SSC frequency at day-10 (flow cytometry): without alteration of SSC frequency
